Assay results as given in paper PMC3928684 (Biotechnology and bioengineering, 2009).

T1: LovD (simvastatin synthase) (Aspergillus terreus, UniProt Q9Y7D1)
T1 sequence (Q9Y7D1 1-413): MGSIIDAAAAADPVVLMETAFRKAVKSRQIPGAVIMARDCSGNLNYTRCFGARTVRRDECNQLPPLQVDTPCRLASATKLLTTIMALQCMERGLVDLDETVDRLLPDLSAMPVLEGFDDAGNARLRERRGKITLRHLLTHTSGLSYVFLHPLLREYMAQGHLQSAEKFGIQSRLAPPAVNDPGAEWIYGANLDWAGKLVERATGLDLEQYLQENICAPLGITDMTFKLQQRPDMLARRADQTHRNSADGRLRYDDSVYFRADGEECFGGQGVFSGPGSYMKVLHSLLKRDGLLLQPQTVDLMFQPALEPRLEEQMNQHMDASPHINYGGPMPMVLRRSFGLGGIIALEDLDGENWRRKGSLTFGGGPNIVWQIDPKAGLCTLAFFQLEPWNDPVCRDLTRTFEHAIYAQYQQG

B1: LovD (simvastatin synthase) (Aspergillus terreus) (protein)
chain: T1 sequence (Q9Y7D1 1-413)

Columns and labels:
[1] = test system: CCC(C)(C)C(=O)SCCC(=O)OC; assay: purified protein; assay type: biochemical, Aspergillus terreus; conditions: MJSS fixed at 2 mM, DMB-S-MMP 0.25-5 mM; 10% DMSO
[2] = test system: C[C@H]1C=C2C=C[C@H](C)[C@H](CC[C@@H](O)C[C@@H](O)CC(=O)O)[C@H]2[C@@H](O)C1; assay: purified protein; assay type: biochemical, Aspergillus terreus; conditions: DMB-S-MMP fixed at 2 mM, MJSS 0.25-5 mM; 10% DMSO
[3] = molecular target: T1, LovD (simvastatin synthase); assay: HPLC at […] nm, conversion of MJSS to simvastatin sodium salt; assay type: biochemical; conditions: read-out: Wild Type; MJSS fixed at 2 mM, DMB-S-MMP 0.25-5 mM; 10% DMSO
[4] = substrate: C[C@H]1C=C2C=C[C@H](C)[C@H](CC[C@@H](O)C[C@@H](O)CC(=O)O)[C@H]2[C@@H](O)C1; assay: purified protein; assay type: biochemical, Aspergillus terreus; conditions: DMB-S-MMP fixed at 2 mM, MJSS 0.25-5 mM; 10% DMSO; remark: listed apart in the source

| Molecule | Km [1] [µM] | Km [2] [µM] | kcat [2] [s⁻¹] | Km [3] [µM] | Km [4] [µM] | kcat [4] [s⁻¹] |
| --- | --- | --- | --- | --- | --- | --- |
| LovD (simvastatin synthase) (Aspergillus terreus; C60A) | 580 ± 30 | 810 ± 190 | 0.01 ± 0.00067 | – | – | – |
| LovD (simvastatin synthase) (Aspergillus terreus; C40A) | 630 ± 60 | 800 ± 210 | 0.0103 ± 0.00083 | – | – | – |
| LovD (simvastatin synthase) (Aspergillus terreus; C40A/C60N) | 610 ± 30 | 820 ± 100 | 0.01 ± 0.00033 | – | – | – |
| CCC(C)(C)C(=O)SCCC(=O)OC [DMB-S-MMP, α-dimethylbutyryl-S-methyl-3-mercaptopropionate] | – | – | – | 670 ± 40 | – | – |
| B1 | – | – | – | – | 780 ± 120 | 0.0103 ± 0.0005 |
